According to patent US20110305634A1:
Like-named read-outs stand apart in the source and are kept apart here.

What was measured:
[1] = biological target: Desmoglein 2 (DSG2) of human cells (human) (UniProt Q14126)
[2] = biological target: Desmoglein 2 (DSG2) of human cells (human) (UniProt Q14126); remark: listed apart in the source
[3] = biological target: Desmoglein 2 (DSG2) of human cells (human) (UniProt Q14126); remark: listed apart in the source
[4] = biological target: Desmoglein 2 (DSG2) of human cells (human) (UniProt Q14126); remark: listed apart in the source
[5] = biological target: Desmoglein 2 (DSG2) of human cells (human) (UniProt Q14126); test: cell-based or functional assay
[6] = biological target: Recombinant human DSG2 protein (desmoglein 2) (human) (UniProt Q14126); test: SPR, DSG2 immobilized; summary table of FIG. 13B
[7] = biological target: Recombinant human DSG2 protein (desmoglein 2) (human) (UniProt Q14126); test: SPR, DSG2 immobilised, PtDd injected at 3 mg/ml (so in the source)
[8] = biological target: Recombinant human DSG2 protein (desmoglein 2) (human) (UniProt Q14126); test: SPR (BIAcore 3000), recombinant human DSG2 immobilised on CM4 chip, PtDd injected
[9] = biological target: Recombinant human DSG2 protein (desmoglein 2) (human) (UniProt Q14126); test: SPR, DSG2 immobilized; summary table of FIG. 13B (no unit in the table, RU from the axis of 13B)
[10] = biological target: Desmoglein 2 (DSG2) of human cells (human) (UniProt Q14126); test: competition of 3H-Ad3 attachment to HeLa cells after pre-incubation with the named protein; the number is the Ad3 still bound (PBS: 512)
[11] = biological target: Recombinant human DSG2 protein (desmoglein 2) (human) (UniProt Q14126); test: SPR, DSG2 immobilised, Ad3-K/S/Kn injected at 10 mg/ml (so in the source)
[12] = biological target: Ad5/3L-GFP chimeric adenovirus vector (human adenovirus serotype 5; human adenovirus serotype 3) (UniProt P11818)

Chain of Desmoglein 2 (DSG2) of human cells (human) (Q14126 50-1118): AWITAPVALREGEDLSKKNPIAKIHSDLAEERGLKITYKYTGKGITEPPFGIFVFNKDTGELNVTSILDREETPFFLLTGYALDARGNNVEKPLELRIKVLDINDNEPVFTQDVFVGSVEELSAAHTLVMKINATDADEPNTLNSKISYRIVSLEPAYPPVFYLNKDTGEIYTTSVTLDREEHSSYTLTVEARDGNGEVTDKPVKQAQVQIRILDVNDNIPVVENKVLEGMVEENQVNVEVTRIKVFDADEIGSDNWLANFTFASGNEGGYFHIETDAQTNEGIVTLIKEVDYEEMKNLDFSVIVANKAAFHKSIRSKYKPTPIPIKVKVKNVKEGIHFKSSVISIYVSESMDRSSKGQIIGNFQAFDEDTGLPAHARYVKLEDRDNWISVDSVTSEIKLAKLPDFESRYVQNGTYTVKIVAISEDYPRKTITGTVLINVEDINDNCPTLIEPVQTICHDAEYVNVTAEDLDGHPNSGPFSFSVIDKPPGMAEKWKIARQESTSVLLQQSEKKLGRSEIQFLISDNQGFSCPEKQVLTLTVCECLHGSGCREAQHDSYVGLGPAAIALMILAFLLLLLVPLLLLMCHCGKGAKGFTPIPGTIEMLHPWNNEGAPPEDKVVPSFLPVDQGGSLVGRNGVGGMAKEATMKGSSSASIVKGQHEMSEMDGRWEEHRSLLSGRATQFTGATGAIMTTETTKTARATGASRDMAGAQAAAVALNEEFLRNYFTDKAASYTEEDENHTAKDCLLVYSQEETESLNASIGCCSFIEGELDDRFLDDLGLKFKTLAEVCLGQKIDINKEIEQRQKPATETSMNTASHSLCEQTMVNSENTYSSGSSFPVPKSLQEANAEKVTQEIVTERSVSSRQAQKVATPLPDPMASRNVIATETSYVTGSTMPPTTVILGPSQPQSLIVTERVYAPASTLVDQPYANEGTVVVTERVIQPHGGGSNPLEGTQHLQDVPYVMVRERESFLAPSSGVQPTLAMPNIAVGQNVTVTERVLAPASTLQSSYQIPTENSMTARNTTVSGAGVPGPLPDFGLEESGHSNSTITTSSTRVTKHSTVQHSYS
Chain of Recombinant human DSG2 protein (desmoglein 2) (human) (Q14126 50-609 limits assumed): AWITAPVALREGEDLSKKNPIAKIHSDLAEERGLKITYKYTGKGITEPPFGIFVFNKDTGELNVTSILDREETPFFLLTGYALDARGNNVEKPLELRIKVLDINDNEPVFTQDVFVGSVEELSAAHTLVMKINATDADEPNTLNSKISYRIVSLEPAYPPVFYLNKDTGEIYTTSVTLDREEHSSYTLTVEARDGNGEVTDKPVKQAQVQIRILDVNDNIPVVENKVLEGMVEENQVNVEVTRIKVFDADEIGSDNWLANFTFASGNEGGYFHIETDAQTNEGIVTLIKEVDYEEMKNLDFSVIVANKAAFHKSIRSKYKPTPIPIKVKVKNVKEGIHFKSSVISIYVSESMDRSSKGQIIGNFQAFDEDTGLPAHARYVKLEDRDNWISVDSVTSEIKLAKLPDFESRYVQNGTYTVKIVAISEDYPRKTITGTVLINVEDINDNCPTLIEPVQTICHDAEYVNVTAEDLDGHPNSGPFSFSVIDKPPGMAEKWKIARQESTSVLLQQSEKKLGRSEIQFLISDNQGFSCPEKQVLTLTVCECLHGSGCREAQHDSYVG
Chain of Recombinant human DSG2 protein (desmoglein 2) (Q14126 50-609 limits assumed): as above

Work on “Recombinant Ad3 penton-dodecahedra (PtDd)” yielded an IC50 (read off the curve), Ad3-GFP infection of HeLa cells (% of GFP+ cells) [1] of 0.7 mg/L, an IC50 (read off the curve), Ad3-GFP transduction of HeLa cells (GFP MFI) [2] of 0.2 mg/L and an IC50 (read off the curve), Ad5/3L-GFP transduction of HeLa cells (GFP MFI) [2] of 0.5 mg/L. The IC50 (read off the curve), Ad5/3S-GFP transduction of HeLa cells (GFP MFI) [2] was 0.2 mg/L, the IC50 (read off the curve), Ad3-GFP transduction of HeLa cells (% of GFP+ cells) [3] was 1 mg/L and the IC50 (read off the curve), Ad3-GFP transduction of HeLa cells (% of GFP+ cells) [4] was 2 mg/L. The Herceptin cytotoxicity on BT474 cells (WST-1 viability) [5] was 2 fold, the % of remaining binding after 150s [6] was 98% and the SPR response [7] was 100 RU. The Kd [8] was 2.5 nM, the Binding at the end of association [9] was 133 RU and the Remaining binding after 150s dissociation [9] was 130 RU. The Bound 3H-Ad3 VP/cell (with this competitor) [10] was 12 VP/cell.
In the case of “Ad3-K/S/Kn, junction opener 1 (JO-1) (ligand; other documents disagree on this pair)”, the % of remaining binding after 150s [6] is reported as 85.9%, the SPR response [11] is reported as 100 RU and the Binding at the end of association [9] is reported as 113 RU. The Remaining binding after 150s dissociation [9] was 96.9 RU.
Work on Recombinant Ad3 base dodecahedra (BsDd) yielded a Bound 3H-Ad3 VP/cell (with this competitor) [10] of 556 VP/cell.
Work on “Recombinant human DSG2 protein (desmoglein 2) (from UniProt Q14126 50-609) (receptor)” yielded an IC50 (read off the curve), Ad5/3L-GFP transduction of HeLa cells (GFP MFI) [12] of 1 mg/L.
